For the assay, the target named is vitronectin (UniProt P04004).

The values below come from paper PMC2364200.

Sequence of UniProt P04004 (P04004 20-478): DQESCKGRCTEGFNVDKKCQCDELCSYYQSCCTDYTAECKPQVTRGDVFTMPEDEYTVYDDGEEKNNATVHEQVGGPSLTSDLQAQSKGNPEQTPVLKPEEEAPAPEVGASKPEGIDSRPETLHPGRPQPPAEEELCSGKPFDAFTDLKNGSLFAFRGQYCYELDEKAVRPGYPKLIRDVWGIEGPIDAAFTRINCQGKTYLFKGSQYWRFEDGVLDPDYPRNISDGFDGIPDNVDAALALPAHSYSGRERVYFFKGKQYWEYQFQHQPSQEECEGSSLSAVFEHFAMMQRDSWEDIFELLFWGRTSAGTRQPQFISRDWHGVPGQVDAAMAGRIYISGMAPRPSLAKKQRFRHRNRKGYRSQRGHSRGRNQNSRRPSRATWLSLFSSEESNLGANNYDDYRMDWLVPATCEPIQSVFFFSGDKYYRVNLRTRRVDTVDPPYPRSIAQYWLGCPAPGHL

Turning to “avb3 integrin heterodimer with the b3 chimaeric mutant whose cytoplasmic domain is extended by the C-terminal 11 amino acids of b6 (on V3B3S11aa squamous cell carcinoma cells) (from UniProt P06756 31-1048; P05106 27-788; P18564 778-788) (receptor)”, the adhesion of V3B3S11aa cells on vitronectin (C1 null transfectant cells without avb3: 6.52%) stood at 39.5%, the haptotactic migration of V3B3S11aa cells towards vitronectin (C1 cells: 2.01%) was 21.8%, the haptotactic migration of V3B3S11aa cells towards vitronectin in the presence of LM609 stood at 0% and the inhibition of adhesion of V3B3S11aa cells to vitronectin by LM609 (anti-avb3 blocking antibody) came to 26%.

Consider “avb3 integrin heterodimer, wild type b3 (on V3B3 squamous cell carcinoma cells) (from UniProt P06756 31-1048; P05106 27-788) (receptor)”, for which the adhesion of V3B3 cells on vitronectin (C1 null transfectant cells without avb3: 6.52%) was found to be 38.6%, the haptotactic migration of V3B3 cells towards vitronectin (C1 cells: 2.01%) is 20.3%, the haptotactic migration of V3B3 cells towards vitronectin in the presence of LM609 stood at 3.92% and the inhibition of adhesion of V3B3 cells to vitronectin by LM609 (anti-avb3 blocking antibody) came out at 30.6%.
